The text below walks through data of publication PMC9132248.

Settings in all cases: glycan lost; control: wild type APP-SNAP
The nature of series [1]: Aβ42 ELISA of culture medium (secreted). (In general: ELISA stands for enzyme-linked immunosorbent assay.)
Series [2] in a line: Aβ42 ELISA of cell lysate (intracellular).
The nature of series [3]: confocal colocalisation with Golgi marker GRASP65.
A short description of series [4]: live-cell confocal colocalisation with SiR-lysosome.
Series [5] can be described thus: confocal imaging, size of APP-SNAP-positive vesicles.
Series [6] can be described thus: Airyscan colocalisation with early endosome marker EEA1.
Series [7] in a line: confocal, fraction of cells with plasma-membrane APP-SNAP.
The nature of series [8]: confocal, plasma-membrane share of total APP-SNAP intensity per cell.

“amyloid precursor protein (hAPP695-SNAP): N496Q”: the “other: proteolytic processing” value in series [1] and in series [2] was “increases” in each case. The localisation_or_trafficking entry in series [3] is recorded as “no change”; in series [4] it was “decreases”; in series [5], “decreases”; in series [6], “no change”; in series [8] it was “decreases”. Further, the “localisation_or_trafficking, other: percent of cells with APP-SNAP in plasma membrane” value in series [7] is listed as “decreases, 9.8 vs 35.3”.

Turning to “amyloid precursor protein (hAPP695-SNAP): N467Q”, the “other: proteolytic processing” value in series [1] and in series [2] was “increases” each time. For the same substance, the localisation_or_trafficking result in series [3] is on record as “no change”; in series [4], “decreases”; in series [5], “decreases”; in series [6] it was “no change”; in series [8], “decreases”. Moreover, the “localisation_or_trafficking, other: percent of cells with APP-SNAP in plasma membrane” value in series [7] was “decreases, 11.8 vs 35.3”.
